Experiments:
[1] = molecular target: human ADAM9 (Disintegrin and Metalloproteinase Domain-containing Protein 9), on cells (human) (UniProt Q13443); assay: IHC staining of human tumour tissue: NSCLC (ILS10901), Adenocarcinoma; antibody at 0.4 µg/mL
[2] = molecular target: human ADAM9 (Disintegrin and Metalloproteinase Domain-containing Protein 9), on cells (human) (UniProt Q13443); assay: IHC staining of human tumour tissue: Colon CA (ILS10369 B); antibody at 0.4 µg/mL
[3] = molecular target: human ADAM9 (Disintegrin and Metalloproteinase Domain-containing Protein 9), on cells (human) (UniProt Q13443); assay: IHC staining of human tumour tissue: Colon CA (ILS10341 B); antibody at 0.4 µg/mL
[4] = molecular target: human ADAM9 (Disintegrin and Metalloproteinase Domain-containing Protein 9), on cells (human) (UniProt Q13443); assay: IHC staining of human tumour tissue: Gastric CA (ILS-450 A); antibody at 0.4 µg/mL
[5] = molecular target: human ADAM9 (Disintegrin and Metalloproteinase Domain-containing Protein 9), on cells (human) (UniProt Q13443); assay: IHC staining of human tumour tissue: NSCLC (ILS7115 D), Squamous Cell Carcinoma; antibody at 0.4 µg/mL
[6] = molecular target: human ADAM9 (Disintegrin and Metalloproteinase Domain-containing Protein 9), on cells (human) (UniProt Q13443); assay: IHC staining of human tumour tissue: Colon CA (AGR-00237 B); antibody at 0.4 µg/mL
[7] = molecular target: human ADAM9 (Disintegrin and Metalloproteinase Domain-containing Protein 9), on cells (human) (UniProt Q13443); assay: IHC staining of human tumour tissue: Colon CA (ILS11330 B); antibody at 0.4 µg/mL
[8] = molecular target: human ADAM9 (Disintegrin and Metalloproteinase Domain-containing Protein 9), on cells (human) (UniProt Q13443); assay: IHC staining of human tumour tissue: Prostate CA (ILS20758-D3); antibody at 0.4 µg/mL
[9] = molecular target: human ADAM9 (Disintegrin and Metalloproteinase Domain-containing Protein 9), on cells (human) (UniProt Q13443); assay: IHC staining of human tumour tissue: Breast CA (USA-00329); antibody at 0.4 µg/mL
[10] = molecular target: human ADAM9 (Disintegrin and Metalloproteinase Domain-containing Protein 9), on cells (human) (UniProt Q13443); assay: IHC staining of human tumour tissue: NSCLC (ILS7223), Squamous Cell Carcinoma; antibody at 0.4 µg/mL
[11] = molecular target: human ADAM9 (Disintegrin and Metalloproteinase Domain-containing Protein 9), on cells (human) (UniProt Q13443); assay: IHC staining of human tumour tissue: NSCLC (ILS10108), Large Cell Carcinoma; antibody at 0.4 µg/mL

Chain of human ADAM9 (Disintegrin and Metalloproteinase Domain-containing Protein 9), on cells (human) (Q13443 206-819): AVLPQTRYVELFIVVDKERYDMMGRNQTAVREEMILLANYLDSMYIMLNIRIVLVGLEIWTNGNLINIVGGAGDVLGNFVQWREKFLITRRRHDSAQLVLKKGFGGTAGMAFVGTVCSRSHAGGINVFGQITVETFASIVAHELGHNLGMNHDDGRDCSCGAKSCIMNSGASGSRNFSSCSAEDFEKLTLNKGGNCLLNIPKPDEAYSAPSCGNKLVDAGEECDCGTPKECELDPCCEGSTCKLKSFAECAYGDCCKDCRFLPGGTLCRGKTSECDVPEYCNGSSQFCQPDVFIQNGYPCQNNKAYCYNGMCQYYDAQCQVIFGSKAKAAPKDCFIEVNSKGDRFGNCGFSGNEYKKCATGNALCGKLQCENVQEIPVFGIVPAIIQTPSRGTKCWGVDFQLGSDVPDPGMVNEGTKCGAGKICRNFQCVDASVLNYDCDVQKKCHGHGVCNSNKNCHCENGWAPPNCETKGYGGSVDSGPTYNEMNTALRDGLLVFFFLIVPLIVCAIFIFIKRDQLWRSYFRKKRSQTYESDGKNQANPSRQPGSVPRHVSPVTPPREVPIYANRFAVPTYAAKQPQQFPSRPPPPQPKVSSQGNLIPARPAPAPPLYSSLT

B1: MAB-A (antibody, V domains shown)
VH: QVQLQQPGAELVKPGASVKLSCKASGYTFTSYWMHWVKQRPGQGLEWIGEIIPINGHTNYNEKFKSKATLTLDKSSSTAYMQLSSLASEDSAVYYCARGGYYYYGSRDYFDYWGQGTTLTVSS
VL: DIVLTQSPASLAVSLGQRATISCKASQSVDYDGDSYMNWYQQIPGQPPKLLIYAASDLESGIPARFSGSGSGTDFTLNIHPVEEEDAATYYCQQSHEDPFTFGGGTKLEIK
Score [1]: 3 | Score [2]: 1 | Score [3]: 2 | Score [4]: 2 | Score [5]: 1 | Score [6]: 3 | Score [7]: 2 | Score [8]: 3 | Score [9]: 3 | Score [10]: 3 | Score [11]: 3
